This experiment addresses T1, RESTV GP (RESTV, UniProt Q66799 34-651).
T1 sequence: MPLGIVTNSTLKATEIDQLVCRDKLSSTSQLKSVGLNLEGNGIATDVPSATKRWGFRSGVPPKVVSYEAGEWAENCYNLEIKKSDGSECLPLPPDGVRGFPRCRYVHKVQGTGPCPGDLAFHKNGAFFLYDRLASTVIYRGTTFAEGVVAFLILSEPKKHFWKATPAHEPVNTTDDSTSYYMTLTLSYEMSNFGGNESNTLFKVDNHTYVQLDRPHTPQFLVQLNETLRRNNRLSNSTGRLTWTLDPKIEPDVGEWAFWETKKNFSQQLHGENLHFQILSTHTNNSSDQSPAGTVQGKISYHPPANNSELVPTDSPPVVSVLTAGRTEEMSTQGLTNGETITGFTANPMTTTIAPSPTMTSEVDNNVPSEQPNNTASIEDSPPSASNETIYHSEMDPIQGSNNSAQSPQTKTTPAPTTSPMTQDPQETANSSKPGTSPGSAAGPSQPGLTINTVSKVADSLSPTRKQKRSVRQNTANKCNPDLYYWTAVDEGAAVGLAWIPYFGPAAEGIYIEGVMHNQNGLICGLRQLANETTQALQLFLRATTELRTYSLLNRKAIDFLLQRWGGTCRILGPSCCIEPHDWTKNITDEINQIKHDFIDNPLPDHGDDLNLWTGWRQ
As to the kind of experiment: ELISA, coated GP 1μg/mL. Background: ELISA stands for enzyme-linked immunosorbent assay.

B1: 单克隆抗体5E1 (antibody, V domains shown)
VH: EVQLVESGGGVVQSGRSLRLSCAASGFTFSNYGMHWVRRAPGKGLEWVAVISYDGSIKYYADAVQGRFTISRDNSKNTLYLQMNSVRAEDRAVYYCAKGSRVVATLNFFDLWGRGTLVTVSS
VL: AIRMTQSPSSLSASVGDRVTITCRASQDIRNFLAWYQQKPEKAPKLLVYTASRRESGVPPRLSGSGSGTEYTLTISSLQPEDFATYYCQQYYSTPPTFGQGTKVDIKT
In the case of B1, the binding result is recorded as “no binding”.

The values above are taken from patent publication CN111138529A (INST MILITARY MEDICINE ACADEMY MILITARY SCIENCES PLA, dated 2020).
